Measured values taken from patent US20040143859A1 (SANKYO, published 2004).

Target: the molecule itself
Test: SDS-PAGE, reducing (60 KD) against non-reducing (120 KD)
Method: The two protein peaks (6 and 7) with OCIF activity were subjected to SDS-polyacrylamide gel electrophoresis under reducing and non-reducing conditions. Briefly, 20 μl of each peak fraction was concentrated under vacuum and dissolved in 1.5 μl of 10 mM Tris-HCl, pH 8, 1 mM EDTA, 2.5% SDS, 0.01% bromophenol blue, and incubated at 37° C. overnight under non-reducing conditions or under reducing conditions (with 5% of 2-mercaptoethanol). Each 1.0 μl of sample was then analyzed by SDS-polyacrylamide gel electrophoresis with a gradient gel of 10-15% acrylamide (Pharmacia Co.) and an electrophoresis-device (Fast System, Pharmacia Co.). The following molecular weight marker proteins were used to calculate molecular weight:phosphorylase b (94 kD), bovine serum albumin (67 kD), ovalbumin (43 kD), carbonic anhydrase (30 kD), trypsin inhibitor (20.0 kD), and lactalbumin (14.4 kD). After electrophoresis, protein bands were visualized by silver stain using Phast Silver Stain Kit.

B1: osteoclastogenesis inhibitory factor (OCIF), natural, purified from conditioned medium of human fibroblast IMR-90 (other)
chain: ETFPPKYLHYDEETSHQLLCDKCPPGTYLKQHCTAKWKTVCAPCPDHYYTDSWHTSDECLYCSPVCKELQYVKQECNRTHNRVCECKEGRYLEIEFCLKHRSCPPGFGVVQAGTPERNTVCKRCPDGFFSNETSSKAPCRKHTNCSVFGLLLTQKGNATHDNICSGNSESTQKCGIDVTLCEEAFFRFAVPTKFTPNWLSVLVDNLPGTKVNAESVERIKRQHSSQEQTFQLLKLWKHQNKDQDIVKKIIQDIDLCENSVQRHIGHANLTFEQLRSLMESLPGKKVGAEDIEKTIKACKPSDQILKLLSLWRIKNGDQDTLKGLMHALKHSKTYHFPKTVTQSLKKTIRFLHSFTMYKLYQKLFLEMIGNQVQSVKISCL
modifications: N-terminus blocked (the filing says the N-terminal residue may be converted to pyroglutamine); N-linked sugar chains
notes: Secreted glycoprotein found as a 60 kD monomer and a 120 kD homodimer; also called nOCIF; natural OCIF
- binding result: binds
